Legend:
FAM-labeled CRE DNA = assay: FP DNA binding, ATF2; details: ATF2 12 nM-10 μM, 10 nM FAM-CRE DNA; 20 mM potassium phosphate, 50 mM NaCl, 5 mM MgCl2, 10 mM TCEP, pH 7.4; 1 h, room temperature; one site model
FAM-CRE DNA = assay: FP DNA binding, CREB1; details: pH 7.4
Method: (§1) removed before peptide concentration determination.
(§2) Peptide samples were suspended in 20
(§3) Post-melt scans at 20°C confirmed the
(§4) Sequential 2 µL injections of ATF2W (50 µM)
(§5) Data from a control experiment whereby […]
(§6) errors are given as one standard deviation.
(§7) Fluorescence polarisation: Fluorescence polarisation was measured in a CLARIOstar […]
(§8) chloride, 5 mM MgCl2, 10 mM TCEP, pH 7.4 buffer. Palindromic FAM-CRE DNA oligo was […]
(§9) purchased from Merck: 5’[6FAM]- GCGCTGACGTCAGCGC. 200 µM of the oligo was […]
(§10) prepared in water and then annealed by heating to 95°C for 10 minutes before cooling slowly to room temperature to give a 100 µM duplex stock. Samples containing 10 nM FAM-CRE and a serial dilution of ATF2 (12 nM-10 µM) were prepared and incubated at room temperature for 1 hour before transferring to the assay plate for measurement. Data were fit to a one site binding model. For antagonism experiments, the ATF2 concentration required for 80% response was selected. Samples containing 10 nM FAM-TRE, 625 nM ATF2 and a serial dilution of ATF2W (29 nM-12 µM) were prepared and incubated at room temperature for 2 hours before transferring to the assay plate for measurement. CREB1/CRE, cJun/TRE and DLX5/H-box DNA antagonism were determined by the equivalent experiments, using the FAM-CRE oligo above; FAM-TRE DNA oligoes: 5’-[6FAM]-TCTCTGACTCAGAGA, 5’- […]

[1] = system: CREB1 bZIP-CRE DNA (CRE mDHFR reporter); assay: TBS growth assay: transcription block relief / peptide antagonism in E. coli (CREB1/CRE); type: cell-based, E. coli BL21-Gold; details: M9 agar, 8 μM TMP, 1 mM IPTG, three independent experiments
Text: To validate the new TBS constructs, six BL21-Gold E. coli control strains were generated. Empty plasmids (lacking gene of interest) were used to control for replication and antibiotic stresses (Table ): Control strains 1 and 4 contained mDHFR gene reporter plasmids for 5xCRE and 9xCRE respectively, and two empty plasmids; control strains 2 and 5 contained reporter plasmid, target plasmid encoding the CREB1 basic-leucine zipper (bZIP) domain and one empty plasmid; control strains 3 and 6 contained reporter plasmid, target plasmid and the antagonist plasmid encoding A-CREB (peptide inhibitor of CREB1 comprising a rationally designed acidic extension appended to the N-terminus of the CREB1 LZ).
2 Introduction of CRE DNA sites into the 5′-promoter/UTR region of a mDHFR plasmid facilitates effective transcription block. […]
(§11) pressure respectively. Three independent growth experiments were conducted for each strain/condition with the percentage of the plate covered by bacterial colonies determined using ImageJ 1.54G. Images were converted to 8-bit, threshold values were set to identify coverage, and the resulting black and white image was measured for percentage coverage in a defined circle excluding the plate edge. Percentage coverage was utilised to quantify both bacterial survival and growth rate.

E. coli = assay: TBS growth without TMP (cellular toxicity of expression); type: cell-based, E. coli BL21-Gold; details: strain 10, 0 μM TMP, 0.8 mM IPTG
Method: (§12) 3 Introduction of H-box DNA sites into the 5′-promoter/UTR region of a mDHFR plasmid enables transcription block by both DLX5 full length and homeodomain. Equal numbers of cells from the control strains (Table ) were plated on selective M9 agar (0 or 8 μM TMP, 0.8 or 0.2 mM IPTG) and incubated (30 or 37 °C) before imaging. Bar charts show % plate coverage for three independent experiments with error bars shown as one standard deviation. Select p values from a t test are indicated (*p ≤ 0.05; **p ≤ 0.01; ns = not significant).
(§13) Enhancing the efficacy, utility and throughput of the Transcription Block Survival peptide library screening platform
(§14) Andrew Brennan1,2, T M Simon Tang1 and Jody M Mason1,2
(§15) 1Department of Life Sciences, University of Bath, Bath BA2 7AY, United Kingdom 2Address correspondence to JMM or AB (j.mason@bath.ac.uk; ab3107@bath.ac.uk) […]
as §11

[2] = system: 9xDLX (H-box) mDHFR reporter; assay: TBS growth assay: transcription block by DLX5 HD / FL; type: cell-based, E. coli BL21-Gold; details: 8 μM TMP; for colony formation on target expression (transcription block): strains 9 (HD) and 10 (FL) vs 8, 9xDLX mDHFR, M9 agar, 0.8 or 0.2 mM IPTG, 30 or 37 °C, three independent experiments
Text: To highlight the platforms versatility for TFs with distinct DNA recognition motifs, we next constructed a 9xhomeobox (H-Box) system to identify inhibitors of homeodomain-containing TFs, including the DLX (Figure C), pre-B cell leukemia transcription factor (PBX) and orthodenticle homeobox protein (OTX) families. As with the CRE-based design, nine H-box consensus sequences were inserted into the 5′-promoter/UTR region of the mDHFR reporter gene (Figure S4).
as §12, §13, §14, §15
Plasmid constructs: Target cognate binding sequence-containing inserts were produced using PCR fill-in reactions from synthesised primers (Merck). They were then subcloned using XhoI and SphI sites into the pQE16-derivative pES300d WT mDHFR plasmid (Figure S1, S2, S3). […]
as §11

FAM-H-Box DNA = assay: FP DNA binding, DLX5; details: pH 7.4
Method: as §1, §2, §3, §4, §5, §6, §7, §8, §9, §10

cJun bZIP [3] = biological target: cJun bZIP (UniProt P05412); assay: competition (FP); details: antagonist peptide ATF2W; FP: chloride salt (buffer and salt concentration truncated in material), 5 mM MgCl2, 10 mM TCEP, pH 7.4; 10 nM FAM-DNA; 1 h incubation, temperature not in …
cJun bZIP [4] = biological target: cJun bZIP (UniProt P05412); assay: fluorescence polarization; details: FP: chloride salt (buffer and salt concentration truncated in material), 5 mM MgCl2, 10 mM TCEP, pH 7.4; 10 nM FAM-DNA; 1 h incubation, temperature not in …
ATF2 bZIP [5] = biological target: T1, ATF2 bZIP (human, UniProt P15336 352-410); assay: fluorescence polarization; 10 nM DNA, ATF2 12 nM-10 uM; FP: chloride salt (buffer and salt concentration truncated in material), 5 mM MgCl2, 10 mM TCEP, pH 7.4; 10 nM FAM-DNA; 1 h incubation, temperature not in material; details: chain copies: 2; label: 5' 6-FAM; blunt; self-complementary, 2 copies
T1 sequence: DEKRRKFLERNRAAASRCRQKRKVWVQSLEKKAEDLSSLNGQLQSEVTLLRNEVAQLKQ

CREB1 bZIP [6] = biological target: T2, CREB1 bZIP (UniProt P16220 269-327); assay: fluorescence polarization; FP: chloride salt (buffer and salt concentration truncated in material), 5 mM MgCl2, 10 mM TCEP, pH 7.4; 10 nM FAM-DNA; 1 h incubation, temperature not in material; details: chain copies: 2; label: 5' 6-FAM; blunt; self-complementary, 2 copies
T2 sequence: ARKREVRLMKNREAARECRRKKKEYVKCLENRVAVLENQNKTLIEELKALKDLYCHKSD

CREB1 bZIP [7] = biological target: T2, CREB1 bZIP; assay: competition (FP); antagonist peptide ATF2W; FP: chloride salt (buffer and salt concentration truncated in material), 5 mM MgCl2, 10 mM TCEP, pH 7.4; 10 nM FAM-DNA; 1 h incubation, temperature not in material; details: chain copies: 2; label: 5' 6-FAM; blunt; self-complementary, 2 copies
ATF2 bZIP [8] = biological target: T1, ATF2 bZIP; assay: competition (FP); antagonist peptide ATF2W 29 nM-12 uM, 625 nM ATF2; FP: chloride salt (buffer and salt concentration truncated in material), 5 mM MgCl2, 10 mM TCEP, pH 7.4; 10 nM FAM-DNA; 1 h incubation, temperature not in material; details: chain copies: 2; label: 5' 6-FAM; blunt; self-complementary, 2 copies
ATF2 bZIP [9] = biological target: T1, ATF2 bZIP; assay: competition (FP); antagonist: non-selected library member control peptide; FP: chloride salt (buffer and salt concentration truncated in material), 5 mM MgCl2, 10 mM TCEP, pH 7.4; 10 nM FAM-DNA; 1 h incubation, temperature not in material; details: chain copies: 2; label: 5' 6-FAM; blunt; self-complementary, 2 copies
DLX5 HD = DLX5 HD (UniProt P56178 138-198); assay: fluorescence polarization; FP: chloride salt (buffer and salt concentration truncated in material), 5 mM MgCl2, 10 mM TCEP, pH 7.4; 10 nM FAM-DNA; 1 h incubation, temperature not in material; details: label: 5' 6-FAM; blunt; self-complementary, 2 copies
FAM-TRE DNA = assay: FP DNA binding, cJun; details: pH 7.4
Method: as §1, §2, §3, §4, §5, §6, §7, §8, §9, §10

Chain of DLX5 HD (P56178 138-198): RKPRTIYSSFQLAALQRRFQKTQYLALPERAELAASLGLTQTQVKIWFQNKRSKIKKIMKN

ATF2: human ATF2 bZIP domain spans from Asp352 to Gln410
Kd (FAM-labeled CRE DNA): 277 ± 19 nM

CREB1: CREB1 bZIP domain spans from Ala283 to Asp341 (ARKREVRLMKNREAARECRRKKKEYVKCLENRVAVLENQNKTLIEELKALKDLYCHKSD)
Kd (FAM-CRE DNA): 156 ± 26 nM
bacterial growth on target expression (transcription block) ([1]; strains 2 and 5 (5xCRE and 9xCRE mDHFR)): markedly reduced growth

DLX5 FL: full-length DLX5
growth in absence of TMP (cellular toxicity) (E. coli): reduced growth was also observed in the absence of TMP
growth inhibition on target expression, comparison FL vs HD ([2]; strain 10 vs 9, optimized conditions: 0.2 mM IPTG or 30 °C): produced a robust transcriptional block and more effectively suppressed E. coli growth than DLX5 HD
colony formation on target expression (transcription block) [2]: introduced a transcriptional block, resulting in reduced colony formation

DLX5: DLX5 HD spans from Val137 to Asn198
Kd (FAM-H-Box DNA): 383 ± 19 nM
colony formation on target expression (transcription block) [2]: less pronounced than in the corresponding CRE system

LEQQLEELAQENEELEKEAEELEQELAELENRVAVLENQNKTLIEELKALKDLYCHKSD [A-CREB, reference compound]
bacterial growth restoration (relief of transcriptional block) ([1]; strains 3 and 6 (5xCRE and 9xCRE mDHFR) expressing CREB1 bZIP and A-CREB, % plate coverage): Growth was restored

TCTCTGACTCAGAGA (double strand) [FAM-TRE]
IC50 (cJun bZIP [3]): 1850 nM
Kd (cJun bZIP [4]): 330 nM

B1: FAM-CRE (dsDNA)
DNA 1: GCGCTGACGTCAGCGC
DNA 2: GCGCTGACGTCAGCGC
Kd (ATF2 bZIP [5]): 277 ± 19 nM
Kd (CREB1 bZIP [6]): 156 ± 26 nM
IC50 (CREB1 bZIP [7]): 2360 ± 59 nM
IC50 (ATF2 bZIP [8]): 667 ± 71 nM
IC50 (ATF2 bZIP [9]): 3690 ± 110 nM

B2: FAM-H-Box (dsDNA)
DNA 1: TCTCTAATTAGAGA
DNA 2: TCTCTAATTAGAGA
Kd (DLX5 HD): 383 ± 19 nM

B3: cJun: purified cJun bZIP (protein)
chain: RIKAERKRMRNRIAASKCRKRKLERIARLEEKVKTLKAQNSELASTANMLREQVAQLKQKVMNH
Kd (FAM-TRE DNA): 330 ± 42 nM
